The results in this text go back to patent publication US20230114801A1 (SYSTIMMUNE, published 2023).

Experiment [1] addresses T1, human CD3 (human, UniProt P07766 23-126; P04234 22-105).
T1 construct: also called His-tagged human CD3; human CD3 (Acro CDD-H52W1)
The experiment is described as follows: BLI (Octet), binder on AHC sensor, 100 nM human CD3, 1:1 fit. In general terms: BLI is a label-free optical method that tracks binding on a fibre tip over time.

Experiment [2] has as its target T2, human EGFR (human, UniProt P00533 25-645, limits assumed).
T2 construct: Soluble antigen in Octet; construct not described
The experiment is described as follows: BLI (Octet), binder on AHC sensor, 200 nM human EGFR, 1:1 fit.

Experiment [3] concerns the target T2, human EGFR. The experiment can be described thus: BLI (Octet), binder on AHC sensor, 100 nM human antigen, 1:1 fit.
A further experiment deals with T3, human HER3 (human, UniProt P21860 20-643).
T3 construct: Soluble antigen in Octet; bought; also called human HER3 (Acro ER3-H5223)
Described as above.

For experiment [4], the target named is T1, human CD3. The experiment is described as above.

A word on the Kd: it is the concentration at which binding is half-saturated. Lower therefore signals a tighter complex.

B1: SI-75X13 (bispecific antibody, human IgG1, kappa, L234A L235A)
chain 1: QVQLQESGGRLVQPGEPLSLTCKTSGIDLSSNAIGWVRQAPGKGLEWIGVIFGSGNTYYASWAKGRFTISRSTSTVYLKMNSLRSEDTAIYYCARGGYSSDIWGQGTLVTVSSASTKGPSVFPLAPSSKSTSGGTAALGCLVKDYFPEPVTVSWNSGALTSGVHTFPAVLQSSGLYSLSSVVTVPSSSLGTQTYICNVNHKPSNTKVDKRVEPKSCDKTHTCPPCPAPEAAGGPSVFLFPPKPKDTLMISRTPEVTCVVVDVSHEDPEVKFNWYVDGVEVHNAKTKPREEQYNSTYRVVSVLTVLHQDWLNGKEYKCAVSNKALPAPIEKTISKAKGQPREPQVYTLPPSRDELTKNQVSLSCAVKGFYPSDIAVEWESNGQPENNYKTTPPVLDSDGSFFLVSKLTVDKSRWQQGNVFSCSVMHEALHNHYTQKSLSLSPGGGGGSGGGGSEVQLQESGGGLVQAGDSLSLSCLVSGRSFNSYTMGWFRQAPGKEREFVAAILWSGPTTYYADSVKGRFTISRDNAKNTVYLQMNSLKPEDTAVYYCAAALGVLVLAPGNVYSYWGQGTQVTVSS
chain 2: DPQLTQSPSSLSATVGQRVTINCQSSQSVAKNNNLAWFQQKPGKPPKLLIYSASTLAAGVPSRFSGSGSGTQFTLTITRVQSEDFATYYCSARDSGNIQSFGGGTRVEIKRTVAAPSVFIFPPSDEQLKSGTASVVCLLNNFYPREAKVQWKVDNALQSGNSQESVTEQDSKDSTYSLSSTLTLSKADYEKHKVYACEVTHQGLSSPVTKSFNRGECGGDKTHTCPPCPAPEAAGGPSVFLFPPKPKDTLMISRTPEVTCVVVDVSHEDPEVKFNWYVDGVEVHNAKTKPREEQYNSTYRVVSVLTVLHQDWLNGKEYKCAVSNKALPAPIEKTISKAKGQPREPQVYTLPPSRDELTKNQVSLWCLVKGFYPSDIAVEWESNGQPENNYKTTPPVLDSDGSFFLYSKLTVDKSRWQQGNVFSCSVMHEALHNRFTQKSLSLSPG
notes: bi-miniGNC; D3 αCD3* (Fab), D4 αEGFR VHH
For B1, the equilibrium dissociation constant (Kd) is 56 nM with human CD3 [1] and 34 nM with human EGFR [2].

B2: SI-75X11 (bispecific antibody, human IgG1, kappa, L234A L235A)
chain 1: EVQLQESGGGLVQAGDSLSLSCLVSGRSFNSYTMGWFRQAPGKEREFVAAILWSGPTTYYADSVKGRFTISRDNAKNTVYLQMNSLKPEDTAVYYCAAALGVLVLAPGNVYSYWGQGTQVTVSSGGGGSGGGGSQVQLQESGGRLVQPGEPLSLTCKTSGIDLSSNAIGWVRQAPGKGLEWIGVIFGSGNTYYASWAKGRFTISRSTSTVYLKMNSLRSEDTAIYYCARGGYSSDIWGQGTLVTVSSASTKGPSVFPLAPSSKSTSGGTAALGCLVKDYFPEPVTVSWNSGALTSGVHTFPAVLQSSGLYSLSSVVTVPSSSLGTQTYICNVNHKPSNTKVDKRVEPKSCDKTHTCPPCPAPEAAGGPSVFLFPPKPKDTLMISRTPEVTCVVVDVSHEDPEVKFNWYVDGVEVHNAKTKPREEQYNSTYRVVSVLTVLHQDWLNGKEYKCAVSNKALPAPIEKTISKAKGQPREPQVYTLPPSRDELTKNQVSLSCAVKGFYPSDIAVEWESNGQPENNYKTTPPVLDSDGSFFLVSKLTVDKSRWQQGNVFSCSVMHEALHNHYTQKSLSLSPG
chain 2: DPQLTQSPSSLSATVGQRVTINCQSSQSVAKNNNLAWFQQKPGKPPKLLIYSASTLAAGVPSRFSGSGSGTQFTLTITRVQSEDFATYYCSARDSGNIQSFGGGTRVEIKRTVAAPSVFIFPPSDEQLKSGTASVVCLLNNFYPREAKVQWKVDNALQSGNSQESVTEQDSKDSTYSLSSTLTLSKADYEKHKVYACEVTHQGLSSPVTKSFNRGECGGDKTHTCPPCPAPEAAGGPSVFLFPPKPKDTLMISRTPEVTCVVVDVSHEDPEVKFNWYVDGVEVHNAKTKPREEQYNSTYRVVSVLTVLHQDWLNGKEYKCAVSNKALPAPIEKTISKAKGQPREPQVYTLPPSRDELTKNQVSLWCLVKGFYPSDIAVEWESNGQPENNYKTTPPVLDSDGSFFLYSKLTVDKSRWQQGNVFSCSVMHEALHNRFTQKSLSLSPG
notes: bi-miniGNC; D1 αEGFR VHH, D3 αCD3* (Fab)
As for B2, the results for the dissociation constant Kd in the experiment with human CD3 [1] and with human EGFR [2] were 65.7 nM and 21.6 nM, respectively.

B3: SI-75X18 (other)
chain 1: QVQLQESGGRLVQPGEPLSLTCKTSGIDLSSNAIGWVRQAPGKGLEWIGVIFGSGNTYYASWAKGRFTISRSTSTVYLKMNSLRSEDTAIYYCARGGYSSDIWGQGTLVTVSSASTKGPSVFPLAPSSKSTSGGTAALGCLVKDYFPEPVTVSWNSGALTSGVHTFPAVLQSSGLYSLSSVVTVPSSSLGTQTYICNVNHKPSNTKVDKRVEPKSCDKTHTCPPCPAPEAAGGPSVFLFPPKPKDTLMISRTPEVTCVVVDVSHEDPEVKFNWYVDGVEVHNAKTKPREEQYNSTYRVVSVLTVLHQDWLNGKEYKCAVSNKALPAPIEKTISKAKGQPREPQVYTLPPSRDELTKNQVSLSCAVKGFYPSDIAVEWESNGQPENNYKTTPPVLDSDGSFFLVSKLTVDKSRWQQGNVFSCSVMHEALHNHYTQKSLSLSPGGGGGSGGGGSQVQLQQSGPGLVKPSETLSITCTVSGFSLTNYGVHWIRQAPGKGLEWLGVIWSGGNTDYNTPFTSRFTITKDNSKNQVYFKLRSVRADDTAIYYCARALTYYDYEFAYWGQGTLVTVSSGGGGSGGGGSGGGGSGGGGSEIVLTQSPSTLSVSPGERATFSCRASQSIGTNIHWYQQKPGKPPRLLIKYASESISGIPDRFSGSGSGTEFTLTISSVQSEDFAVYYCQQNNNWPTTFGPGTKLTVL
chain 2: DPQLTQSPSSLSATVGQRVTINCQSSQSVAKNNNLAWFQQKPGKPPKLLIYSASTLAAGVPSRFSGSGSGTQFTLTITRVQSEDFATYYCSARDSGNIQSFGGGTRVEIKRTVAAPSVFIFPPSDEQLKSGTASVVCLLNNFYPREAKVQWKVDNALQSGNSQESVTEQDSKDSTYSLSSTLTLSKADYEKHKVYACEVTHQGLSSPVTKSFNRGECGGDKTHTCPPCPAPEAAGGPSVFLFPPKPKDTLMISRTPEVTCVVVDVSHEDPEVKFNWYVDGVEVHNAKTKPREEQYNSTYRVVSVLTVLHQDWLNGKEYKCAVSNKALPAPIEKTISKAKGQPREPQVYTLPPSRDELTKNQVSLWCLVKGFYPSDIAVEWESNGQPENNYKTTPPVLDSDGSFFLYSKLTVDKSRWQQGNVFSCSVMHEALHNRFTQKSLSLSPGGGGGSGGGGSQVQLQESGGGLVKPGGSLSLSCAASGFTFSSYWMSWVRQAPGKGLEWVANINRDGSASYYVDSVKGRFTISRDDAKNSLYLQMNSLRAEDTAVYYCARDRGVGYFDLWGRGTLVTVSSGGGGSGGGGSGGGGSQSALTQPASVSGSPGQSITISCTGTSSDVGGYNFVSWYQQHPGKAPKLMIYDVSDRPSGVSDRFSGSKSGNTASLIISGLQADDEADYYCSSYGSSSTHVIFGGGTKVTVL
notes: tri-miniGNC; D3 αCD3* (Fab), D4 αEGFR, D5 αHER3
For the molecule B3, the Kd in the experiment with human EGFR [3] was 2.72 nM; with human HER3, 93.8 nM; with human CD3 [4] it was 47.3 nM.

B4: SI-75X16 (other)
chain 1: EIVLTQSPSTLSVSPGERATFSCRASQSIGTNIHWYQQKPGKPPRLLIKYASESISGIPDRFSGSGSGTEFTLTISSVQSEDFAVYYCQQNNNWPTTFGPGTKLTVLGGGGSGGGGSGGGGSGGGGSQVQLQQSGPGLVKPSETLSITCTVSGFSLTNYGVHWIRQAPGKGLEWLGVIWSGGNTDYNTPFTSRFTITKDNSKNQVYFKLRSVRADDTAIYYCARALTYYDYEFAYWGQGTLVTVSSGGGGSGGGGSQVQLQESGGRLVQPGEPLSLTCKTSGIDLSSNAIGWVRQAPGKGLEWIGVIFGSGNTYYASWAKGRFTISRSTSTVYLKMNSLRSEDTAIYYCARGGYSSDIWGQGTLVTVSSASTKGPSVFPLAPSSKSTSGGTAALGCLVKDYFPEPVTVSWNSGALTSGVHTFPAVLQSSGLYSLSSVVTVPSSSLGTQTYICNVNHKPSNTKVDKRVEPKSCDKTHTCPPCPAPEAAGGPSVFLFPPKPKDTLMISRTPEVTCVVVDVSHEDPEVKFNWYVDGVEVHNAKTKPREEQYNSTYRVVSVLTVLHQDWLNGKEYKCAVSNKALPAPIEKTISKAKGQPREPQVYTLPPSRDELTKNQVSLSCAVKGFYPSDIAVEWESNGQPENNYKTTPPVLDSDGSFFLVSKLTVDKSRWQQGNVFSCSVMHEALHNHYTQKSLSLSPG
chain 2: QSALTQPASVSGSPGQSITISCTGTSSDVGGYNFVSWYQQHPGKAPKLMIYDVSDRPSGVSDRFSGSKSGNTASLIISGLQADDEADYYCSSYGSSSTHVIFGGGTKVTVLGGGGSGGGGSGGGGSGGGGSQVQLQESGGGLVKPGGSLSLSCAASGFTFSSYWMSWVRQAPGKGLEWVANINRDGSASYYVDSVKGRFTISRDDAKNSLYLQMNSLRAEDTAVYYCARDRGVGYFDLWGRGTLVTVSSGGGGSGGGGSDPQLTQSPSSLSATVGQRVTINCQSSQSVAKNNNLAWFQQKPGKPPKLLIYSASTLAAGVPSRFSGSGSGTQFTLTITRVQSEDFATYYCSARDSGNIQSFGGGTRVEIKRTVAAPSVFIFPPSDEQLKSGTASVVCLLNNFYPREAKVQWKVDNALQSGNSQESVTEQDSKDSTYSLSSTLTLSKADYEKHKVYACEVTHQGLSSPVTKSFNRGECGGDKTHTCPPCPAPEAAGGPSVFLFPPKPKDTLMISRTPEVTCVVVDVSHEDPEVKFNWYVDGVEVHNAKTKPREEQYNSTYRVVSVLTVLHQDWLNGKEYKCAVSNKALPAPIEKTISKAKGQPREPQVYTLPPSRDELTKNQVSLWCLVKGFYPSDIAVEWESNGQPENNYKTTPPVLDSDGSFFLYSKLTVDKSRWQQGNVFSCSVMHEALHNRFTQKSLSLSPG
notes: tri-miniGNC; D1 αEGFR, D2 αHER3, D3 αCD3* (Fab)
As to B4, the figures for the Kd with human EGFR [3], with human HER3 and in the experiment with human CD3 [4] were 6.8 nM, 113 nM and 33.4 nM, respectively.
